Results: patent publication US20150044209A1

Key:
[1] = target: human insulin (human) (UniProt P01308); experiment: SPR (Biacore 3000), multi-cycle, insulin titrated over amine-coupled Trap, steady-state affinity model, n=4; insulin titrated over immobilized Trap B; steady-state affinity model; n = 4
[2] = target: ligand-immobilized surfaces (hIGF-I, mIGF-I and hIGF-II); experiment: SPR, multi-cycle, Trap flowed over ligand-immobilized surfaces; ligand not named
[3] = target: human insulin (human) (UniProt P01308); experiment: SPR (Biacore 3000), multi-cycle, insulin titrated over amine-coupled Trap, steady-state affinity model, n=4
[4] = target: mouse IGF-1 (mouse) (UniProt P05017); experiment: SPR, multi-cycle, Trap flowed over amine-coupled ligand, 1:1 kinetic model, n=4
[5] = target: human IGF-2 (human) (UniProt P01344); experiment: as above
Sequence of human IGF-2 (human) (P01344 25-91 limits assumed): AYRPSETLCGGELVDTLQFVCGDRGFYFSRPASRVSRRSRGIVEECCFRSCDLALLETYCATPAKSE

Sequence of human insulin (human) (P01308 25-54 limits assumed, chain 1 of 2): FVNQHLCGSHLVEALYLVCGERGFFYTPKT
Sequence of human insulin (human) (P01308 90-110 limits assumed, chain 2 of 2): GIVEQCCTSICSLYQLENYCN
Sequence of mouse IGF-1 (mouse) (P05017 49-118 limits assumed): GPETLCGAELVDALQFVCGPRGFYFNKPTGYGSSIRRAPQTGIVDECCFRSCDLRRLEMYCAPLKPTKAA

## Trap B: His-tagged h-sIGF1R purified from 293 cells (from UniProt P08069 31-935) (receptor)
[1]
  Kd: 10 µM

## Trap G: h-sIGF1R-Fc, purified from CHO cells using protein A, pH 3.5 elution (Fc fusion)
[2]
  koff: 0.00015 s⁻¹

## Trap D: h-sIGF1R, purified from CHO cells by calcium hydroxyapatite (CHT) column followed by gel filtration (GF) (from UniProt P08069 31-935) (receptor)
[3]
  Kd: 16 µM
[4]
  Kd: 0.01 µM
[5]
  Kd: 0.016 µM

## Trap F: h-sIGF1R-Fc, purified from CHO cells using protein A, pH 4.0 elution (Fc fusion)
[2]
  koff: 0.00043 s⁻¹
